The text below walks through data of patent US20260125451A1.

This test concerns the target BAFF and ARPIL. In words: cell-based or functional assay.

B1: Telitacicept (RCT-18) (Fc fusion)
chain: SRVDQEERFPQGLWTGVAMRSCPEEQYWDPLLGTCMSCKTICNHQSQRTCAAFCRSLSCRKEQGKFYDHLLRDCISCASICGQHPKQCAYFCENKLRSPVNLPPELDKTHTCPPCPAPEAEGAPSVFLFPPKPKDTLMISRTPEVTCVVVDVSHEDPEVKFNWYVDGVEVHNAKTKPREEQYNSTYRVVSVLTVLHQDWLNGKEYKCKVSNKALPSSIEKTISKAKGQPREPQVYTLPPSRDELTKNQVSLTCLVKGFYPSDIAVEWESNGQPENNYKTTPPVLDSDGSFFLYSKLTVDKSRWQQGNVFSCSVMHEALHNHYTQKSLSLSPGK
For B1, the CD27+ CD38+ plasma cell count, mean, BAFF + APRIL-induced, drug at 10 nM stood at 2450 count; the CD27+ CD38+ plasma cell count, mean, BAFF + APRIL-induced, drug at 100 nM was 510 count; the CD27+ CD38+ plasma cell count, mean, BAFF + APRIL-induced, drug at 1000 nM was found to be 230 count.

B2: B746201 (protein)
heavy: EVQLVQSGAEVKKPGESLKISCKGSGYIFTNYWIAWVRQMPGKGLESMGIIYPGDSDIRYSPSFQGQVTISADKSITTAYLQWSSLKASDTAMYYCARHDIEGFDYWGRGTLVTVSSASTKGPSVFPLAPSSKSTSGGTAALGCLVKDYFPEPVTVSWNSGALTSGVHTFPAVLQSSGLYSLSSVVTVPSSSLGTQTYICNVNHKPSNTKVDKRVEPKSCDKTHTCPPCPAPEFEGGPSVFLFPPKPKDTLMISRTPEVTCVVVDVSHEDPEVKFNWYVDGVEVHNAKTKPREEQYNSTYRVVSVLTVLHQDWLNGKEYKCKVSNKALPASIEKTISKAKGQPREPQVYTLPPSRDELTKNQVSLTCLVKGFYPSDIAVEWESNGQPENNYKTTPPVLDSDGSFFLYSKLTVDKSRWQQGNVFSCSVMHEALHNHYTQKSLSLSPGKGGGGSGGGGSGGGGSMLQMAGQCSQNEYFDSLLHACIPCQLRCSSNTPPLTCQRYCSTSCREEQGEFYDHLLRDCISCASICGQHPKQCAAFCE
light: EIVLTQSPGTLSLSPGERATLSCRASQSVSSSFFAWYQQKPGQAPRLLIYGASSRATGIPDRLSGSGSGTDFTLTITRLEPEDFAVYYCQQYDSSAITFGQGTRLEIKRTVAAPSVFIFPPSDEQLKSGTASVVCLLNNFYPREAKVQWKVDNALQSGNSQESVTEQDSKDSTYSLSSTLTLSKADYEKHKVYACEVTHQGLSSPVTKSFNRGEC
Regarding B2, the CD27+ CD38+ plasma cell count, mean, BAFF + APRIL-induced, drug at 10 nM stood at 575 count; the CD27+ CD38+ plasma cell count, mean, BAFF + APRIL-induced, drug at 100 nM is 520 count; the CD27+ CD38+ plasma cell count, mean, BAFF + APRIL-induced, drug at 1000 nM is 410 count.

B3: B805201 (protein)
heavy: EVQLVQSGAEVKKPGESLKISCKGSGYIFTNYWIAWVRQMPGKGLESMGIIYPGDSDIRYSPSFQGQVTISADKSITTAYLQWSSLKASDTAMYYCARHDIEGFDYWGRGTLVTVSSASTKGPSVFPLAPSSKSTSGGTAALGCLVKDYFPEPVTVSWNSGALTSGVHTFPAVLQSSGLYSLSSVVTVPSSSLGTQTYICNVNHKPSNTKVDKRVEPKSCDKTHTCPPCPAPEFEGGPSVFLFPPKPKDTLMISRTPEVTCVVVDVSHEDPEVKFNWYVDGVEVHNAKTKPREEQYNSTYRVVSVLTVLHQDWLNGKEYKCKVSNKALPASIEKTISKAKGQPREPQVYTLPPSRDELTKNQVSLTCLVKGFYPSDIAVEWESNGQPENNYKTTPPVLDSDGSFFLYSKLTVDKSRWQQGNVFSCSVMHEALHNHYTQKSLSLSPGKGGGGSGGGGSGGGGSSTSCREEQGEFYDHLLRDCISCASICGQHPKQCAAFCE
light: EIVLTQSPGTLSLSPGERATLSCRASQSVSSSFFAWYQQKPGQAPRLLIYGASSRATGIPDRLSGSGSGTDFTLTITRLEPEDFAVYYCQQYDSSAITFGQGTRLEIKRTVAAPSVFIFPPSDEQLKSGTASVVCLLNNFYPREAKVQWKVDNALQSGNSQESVTEQDSKDSTYSLSSTLTLSKADYEKHKVYACEVTHQGLSSPVTKSFNRGEC
As for B3, the CD27+ CD38+ plasma cell count, mean, BAFF + APRIL-induced, drug at 10 nM amounted to 434 count; the CD27+ CD38+ plasma cell count, mean, BAFF + APRIL-induced, drug at 100 nM amounted to 426 count; the CD27+ CD38+ plasma cell count, mean, BAFF + APRIL-induced, drug at 1000 nM stood at 438 count.

B4: B637302 (protein)
heavy: EVQLVQSGAEVKKPGESLKISCKGSGYIFTNYWIAWVRQMPGKGLESMGIIYPGDSDIRYSPSFQGQVTISADKSITTAYLQWSSLKASDTAMYYCARHDIEGFDYWGRGTLVTVSSASTKGPSVFPLAPSSKSTSGGTAALGCLVKDYFPEPVTVSWNSGALTSGVHTFPAVLQSSGLYSLSSVVTVPSSSLGTQTYICNVNHKPSNTKVDKRVEPKSCDKTHTCPPCPAPEFEGGPSVFLFPPKPKDTLMISRTPEVTCVVVDVSHEDPEVKFNWYVDGVEVHNAKTKPREEQYNSTYRVVSVLTVLHQDWLNGKEYKCKVSNKALPASIEKTISKAKGQPREPQVYTLPPSRDELTKNQVSLTCLVKGFYPSDIAVEWESNGQPENNYKTTPPVLDSDGSFFLYSKLTVDKSRWQQGNVFSCSVMHEALHNHYTQKSLSLSPGK
light: EIVLTQSPGTLSLSPGERATLSCRASQSVSSSFFAWYQQKPGQAPRLLIYGASSRATGIPDRLSGSGSGTDFTLTITRLEPEDFAVYYCQQYDSSAITFGQGTRLEIKRTVAAPSVFIFPPSDEQLKSGTASVVCLLNNFYPREAKVQWKVDNALQSGNSQESVTEQDSKDSTYSLSSTLTLSKADYEKHKVYACEVTHQGLSSPVTKSFNRGECGGGGSGGGGSMLQMAGQCSQNEYFDSLLHACIPCQLRCSSNTPPLTCQRYCSTSCREEQGEFYDHLLRDCISCASICGQHPKQCAAFCE
Take B4: the CD27+ CD38+ plasma cell count, mean, BAFF + APRIL-induced, drug at 10 nM came to 563 count; the CD27+ CD38+ plasma cell count, mean, BAFF + APRIL-induced, drug at 100 nM turned out to be 482 count; the CD27+ CD38+ plasma cell count, mean, BAFF + APRIL-induced, drug at 1000 nM was determined as 137 count.

B5: B606401 (protein)
heavy: EVQLVQSGAEVKKPGESLKISCKGSGYIFTNYWIAWVRQMPGKGLESMGIIYPGDSDIRYSPSFQGQVTISADKSITTAYLQWSSLKASDTAMYYCARHDIEGFDYWGRGTLVTVSSASTKGPSVFPLAPSSKSTSGGTAALGCLVKDYFPEPVTVSWNSGALTSGVHTFPAVLQSSGLYSLSSVVTVPSSSLGTQTYICNVNHKPSNTKVDKRVEPKSCDKTHTCPPCPAPEFEGGPSVFLFPPKPKDTLMISRTPEVTCVVVDVSHEDPEVKFNWYVDGVEVHNAKTKPREEQYNSTYRVVSVLTVLHQDWLNGKEYKCKVSNKALPASIEKTISKAKGQPREPQVYTLPPSRDELTKNQVSLTCLVKGFYPSDIAVEWESNGQPENNYKTTPPVLDSDGSFFLYSKLTVDKSRWQQGNVFSCSVMHEALHNHYTQKSLSLSPGK
light: EIVLTQSPGTLSLSPGERATLSCRASQSVSSSFFAWYQQKPGQAPRLLIYGASSRATGIPDRLSGSGSGTDFTLTITRLEPEDFAVYYCQQYDSSAITFGQGTRLEIKRTVAAPSVFIFPPSDEQLKSGTASVVCLLNNFYPREAKVQWKVDNALQSGNSQESVTEQDSKDSTYSLSSTLTLSKADYEKHKVYACEVTHQGLSSPVTKSFNRGECGGGGSGGGGSSTSCREEQGEFYDHLLRDCISCASICGQHPKQCAAFCE
Regarding B5, the CD27+ CD38+ plasma cell count, mean, BAFF + APRIL-induced, drug at 10 nM worked out at 654 count; the CD27+ CD38+ plasma cell count, mean, BAFF + APRIL-induced, drug at 100 nM worked out at 549 count; the CD27+ CD38+ plasma cell count, mean, BAFF + APRIL-induced, drug at 1000 nM was 426 count.
